Source: patent US10954305B2 (Immunomedics, Inc., priority 2016, dated 2021)
Where two headings read alike, the source gives them in different places.

Experiments:
colorectal cancer = assay: Phase I/II clinical trial of IMMU-132, CRC; format: in vivo, human
esophageal cancer = assay: Phase I/II clinical trial of IMMU-132, esophageal; format: in vivo, human
[1] = Phase I/II clinical trial of IMMU-132, adverse events; format: in vivo, human; conditions: for dose-limiting toxicity: Phase I
Source text: The maximum tolerated dose (MTD) was judged on the patient's tolerance to the first treatment cycle.

[2] = Phase I/II clinical trial of IMMU-132, pharmacokinetics; conditions: for serum hRS7 IgG, Max / serum hRS7 IgG, Min / serum intact ADC, Max / serum intact ADC, Min / serum hRS7 IgG, Mean / serum intact ADC, Mean: 0.5 h after first dose
Method: SN-38 was measured by HPLC.
Blood samples were taken within ˜30 min from the end of the infusion (e.g., peak) and then prior to each subsequent injection (e.g., trough). […] Serum samples from seven patients also were assayed for SN-38 content, both total (representing SN-38 bound to the IgG and free) and free SN-38 (i.e., unbound SN-38).

HCC1395 (Trop-2−) = assay: dsDNA breaks, rH2AX flow cytometry; format: cell-based, human; conditions: untreated baseline 122
Method: For drug activity testing, HCC1806 and HCC1395 TNBC cell lines cells were seeded in 6-well plates at 5×10^5 cells/well and held at 37° C. overnight. […] The signal intensity of rH2AX was measured by flow cytometry using a BD FACSCalibur (BD Biosciences, San Jose, Calif.).
The cells were then washed to remove unbound conjugate, and then incubated overnight at 37° C.

MDA-MB-468 TNBC tumors = assay: MDA-MB-468 TNBC xenograft therapy; format: in vivo, nude mice; conditions: one animal each, tumors progressed after irinotecan
Source text: The size of the tumors in the individual animals of this group from the onset of tumor transplantation is given.

[3] = system: p21^WAF1/Cip1 in MDA-MB-468; assay: immunoblotting of apoptotic pathway; format: cell-based, human; conditions: by 48 h
Method: Cells (2×10^6) were plated in 6-well plates overnight. […] Parental hRS7 was used as a control for the ADC.

[4] = mouse, in vivo
[5] = system: Capan-1 human pancreatic cancer xenografts; conditions: 1 and 6 h
Method: SN-38 accumulation was determined in nude mice bearing Capan-1 human pancreatic cancer xenografts (−0.06-0.27 g). […] This dose is MTD in mice. […] This dose is well below the MTD in mice.
At 5 different intervals, 3 animals per group were euthanized. […] Serum and tissue homogenates were extracted and analyzed by reversed-phase HPLC (RP-HPLC).

[6] = system: triple-negative breast cancer; conditions: 58 evaluable mTNBC patients, RECIST1.1 (Bardia et al.); cited from earlier work
NCI-N87-S-120 tumors = assay: SN-38-resistant xenograft therapy; conditions: IMMU-132 0.5 mg twice weekly ×4 weeks; irinotecan 40 mg/kg q2dx5
Method: Mice were euthanized once tumors grew to >1.0 cm^3 in size.
NCr female athymic nude (nu/nu) mice, 4 weeks old, were purchased from Taconic Farms. […] Tumor volume (TV) was determined by measurements in two dimensions using calipers, with volumes defined as: L×w^2/2, where L is the longest dimension of the tumor and w the shortest. […] Control mice received each agent alone. […] Mice were euthanized and deemed to have succumbed to disease once tumors grew to >1.0 cm^3 in size.

[7] = tolerability in Swiss-Webster mice; conditions: normal mice, over 1 week
CDC activity = format: cell-based

Substance: IMMU-132
- PD (colorectal cancer; of 18 assessable patients): 6
- PR (colorectal cancer; of 18 assessable patients): 1
- maximum reduction in target lesions (colorectal cancer; person, after 10 months): 65%
- plasma CEA after treatment (colorectal cancer; person, from 781 ng/mL): 26.5 ng/mL
- PD (esophageal cancer; of 4 assessable patients): 1
- PR (esophageal cancer; of 4 assessable patients): 1
- duration of SD (esophageal cancer; patient 25, 18 then 13.5 mg/kg): 30 weeks
- grade-3 diarrhea, patients ([1]; 10 mg/kg): 1
- Dose-limiting toxicity 1st cycle, patients ([1]; 18 mg/kg, 3 treated): 2
- neutropenia >Grade 3 ([1]; 49 patients reporting related AE): 28%
- incidence of Grade 3 or higher adverse events other than neutropenia ([1]; 261 patients enrolled): less than 10%
- Abdominal pain, Grade 3, n (%) ([1]; N = 47): 0
- Abdominal pain, Grade 4, n (%) ([1]; N = 47): 0
- Anemia, Grade 3, n (%) ([1]; N = 47): 2 (4%)
- Anemia, Grade 4, n (%) ([1]; N = 47): 0
- Deep vein thrombosis, Grade 3, n (%) ([1]; N = 47): 1 (2%)
- Deep vein thrombosis, Grade 4, n (%) ([1]; N = 47): 0
- Diarrhea, Grade 3, n (%) ([1]; N = 47): 4 (9%)
- Diarrhea, Grade 4, n (%) ([1]; N = 47): 0
- Dysgeusia, Grade 3, n (%) ([1]; N = 47): 0
- Dysgeusia, Grade 4, n (%) ([1]; N = 47): 0
- Fatigue, Grade 3, n (%) ([1]; N = 47): 4 (9%)
- Fatigue, Grade 4, n (%) ([1]; N = 47): 0
- Febrile Neutropenia, Grade 3, n (%) ([1]; N = 47): 1 (2%)
- Febrile Neutropenia, Grade 4, n (%) ([1]; N = 47): 2 (4%)
- Hypokalemia, Grade 3, n (%) ([1]; N = 47): 1 (2%)
- Hypokalemia, Grade 4, n (%) ([1]; N = 47): 0
- Nausea, Grade 3, n (%) ([1]; N = 47): 0
- Nausea, Grade 4, n (%) ([1]; N = 47): 0
- Neutropenia, Grade 3, n (%) ([1]; N = 47): 11 (24%)
- Neutropenia, Grade 4, n (%) ([1]; N = 47): 2 (4%)
- Pyrexia, Grade 3, n (%) ([1]; N = 47): 0
- Pyrexia, Grade 4, n (%) ([1]; N = 47): 0
- Vomiting, Grade 3, n (%) ([1]; N = 47): 1 (2%)
- Vomiting, Grade 4, n (%) ([1]; N = 47): 0
- WBC Decrease, Grade 3, n (%) ([1]; N = 47): 1 (2%)
- WBC Decrease, Grade 4, n (%) ([1]; N = 47): 0
- dose-limiting toxicity [1]: neutropenia
- dose-limiting toxicity ([1]; listed as sacituzumab govitecan): Neutropenia
- serum hRS7 IgG, Max ([2]; 8 mg/kg): 249.0 µg/mL
- serum hRS7 IgG, Min ([2]; 8 mg/kg): 96.0 µg/mL
- serum intact ADC, Max ([2]; 8 mg/kg): 169.3 µg/mL
- serum intact ADC, Min ([2]; 8 mg/kg): 95.0 µg/mL
- serum hRS7 IgG, Mean ([2]; 8 mg/kg, N 7): 193.1 µg/mL
- serum intact ADC, Mean ([2]; 8 mg/kg, N 7): 141.5 µg/mL
- serum hRS7 IgG, Max ([2]; 10 mg/kg): 285.85 µg/mL
- serum hRS7 IgG, Min ([2]; 10 mg/kg): 152.00 µg/mL
- serum intact ADC, Max ([2]; 10 mg/kg): 237.39 µg/mL
- serum intact ADC, Min ([2]; 10 mg/kg): 144.00 µg/mL
- serum hRS7 IgG, Mean ([2]; 10 mg/kg, N 5): 203.35 µg/mL
- serum intact ADC, Mean ([2]; 10 mg/kg, N 5): 185.77 µg/mL
- serum hRS7 IgG, Max ([2]; 12 mg/kg): 400.0 µg/mL
- serum hRS7 IgG, Min ([2]; 12 mg/kg): 168.9 µg/mL
- serum intact ADC, Max ([2]; 12 mg/kg): 311.0 µg/mL
- serum intact ADC, Min ([2]; 12 mg/kg): 98.0 µg/mL
- serum hRS7 IgG, Mean ([2]; 12 mg/kg, N 9): 239.2 µg/mL
- serum intact ADC, Mean ([2]; 12 mg/kg, N 9): 183.3 µg/mL
- serum hRS7 IgG, Max ([2]; 18 mg/kg): 499.00 µg/mL
- serum hRS7 IgG, Min ([2]; 18 mg/kg): 321.48 µg/mL
- serum intact ADC, Max ([2]; 18 mg/kg): 423.00 µg/mL
- serum intact ADC, Min ([2]; 18 mg/kg): 162.80 µg/mL
- serum hRS7 IgG, Mean ([2]; 18 mg/kg, N 3): 409.16 µg/mL
- serum intact ADC, Mean ([2]; 18 mg/kg, N 3): 258.27 µg/mL
- SN-38 in serum bound to IgG, peak samples ([2]; 30 min after end of infusion): > 96%
- SN-38 in serum bound to IgG ([2]; HPLC): > 95%
- clearance of conjugate from serum ([2]; human, in vivo): ≤ 3 days
- SN-38 bound to IgG, peak sample ([2]; one patient, 12 mg/kg): 4000 ng/mL
- free SN-38, 30-min serum ([2]; patient 15): 88 to 102 ng/mL
- free SN-38 as share of total SN-38 ([2]; patient 15): 2.4% to 3.6%
- total SN-38, 30-min serum ([2]; patient 15, 6th cycle, 6.0 mg/kg): 2,381 ng/mL
- total SN-38, 30-min serum ([2]; patient 15, C1D1, 12 mg/kg): 3,930 ng/mL
- total SN-38, 30-min serum ([2]; patient 15, C1D2, 9.0 mg/kg): 2,947 ng/mL
- SN-38G share of total SN-38+SN-38G ([2]; patient #25, 13.5 mg/kg): 11.6%
- total SN-38 (acid-hydrolyzed), average ([2]; patient #25, 13.5 mg/kg, 11 peak samples): 3309.8 ± 601.8 ng/mL
- SN-38G share of total unbound SN-38+SN-38G ([2]; patient #25, 18 mg/kg): 14.4%
- free SN-38 (non-hydrolyzed) ([2]; patient #25, 18 mg/kg): 155.2 ng/mL
- total SN-38 (acid-hydrolyzed) ([2]; patient #25, 18 mg/kg): 5,089 ng/mL
- intact conjugate in trough samples ([2]; serum drawn immediately before next dose): no sacituzumab govitecan could be detected
- Median fluorescence intensity (rH2AX) (HCC1395 (Trop-2−)): 123
- decrease in tumor size on re-treatment (MDA-MB-468 TNBC tumors): 60%
- decrease of p21^WAF1/Cip1 [3]: 43%
- chloride levels, range [4]: 116 to 127 mmol/L
- glucose levels, range ([4]; 8 mg/kg): 273 to 320 mg/dL
- PD (small cell lung cancer; of 4 assessable patients): 2
- PR (small cell lung cancer; of 4 assessable patients): 2
- PR (small cell lung cancer; out of 25 assessable patients, 8 or 10 mg/kg): 6
- free SN-38G lower than free SN-38 in serum [5]: 3- to 7 times
- interim objective response rate [6]: 31%
- survival benefit (NCI-N87-S-120 tumors): no significant survival benefit
- cumulative dose without acute toxicity [7]: 24 mg/kg SN-38

Substance: hRS7 IgG
- CDC activity (CDC activity): no CDC activity
